Reference: patent US12655405B2, “Sequence specific degradation of single-stranded polynucleotides with CARD1 nuclease” (The Rockefeller University, priority 2020, dated 2026)

Experiments:
M13 ssDNA = assay: Next-generation sequencing of ssDNA degradation products (M13); type: biochemical
Experimental: (§1) To assess the ssDNA cleavage patterns of CARD1, 2 ug of ΦX174 virion DNA (New England Biolabs) or M13 ssDNA (M13mp18) (New England Biolabs) was first digested by 250 nM CARD1 with 2.5 uM of cA4 in a buffer consisting of 20 mM Tris pH 7.5, 150 mM NaCl, 1 mM DTT, and 5 mM MnCl2. At the specified time points, the reaction was quenched by adding 25 mM of EDTA. Half the reaction was visualized by agarose gel electrophoresis. The remaining digestion products from the 2 hour timepoint were purified by phenol chloroform extraction.
Without further fragmentation, the purified digested DNA was subjected to the Accel-NGS 1S Plus DNA Library Kit (Swift Biosciences), proceeding according to the manufacturer's protocol, using a 1.5× ratio of magnetic beads (AMPure XP beads by Beckman Coulter) to also include small DNA fragments. One of the library preparation steps involves the addition of on average 8 nucleotides to the 3′ end of the DNA. […] The 5′ end of each read R1 represents the start of a DNA molecule, and thus a CARD1 cut site. Using a custom python script, the location of 7,020,067 ΦX174 reads (mapping to Genbank reference NC_001422) and 7,670,616 M13 reads (mapping to Genbank reference X02513) was determined. To account for reads mapping at the circular junctions, 65 nucleotides of the first 5′ end of the maps were copied and added at the 3′ end of the maps. […]

ΦX174 ssDNA = assay: Next-generation sequencing of ssDNA degradation products (ΦX174); type: biochemical
Experimental: as §1
Without further fragmentation, the purified digested DNA was subjected to the Accel-NGS 1S Plus DNA Library Kit (Swift Biosciences), proceeding according to the manufacturer's protocol, using a 1.5× ratio of magnetic beads (AMPure XP beads by Beckman Coulter) to also include small DNA fragments. One of the library preparation steps involves the addition of on average 8 nucleotides to the 3′ end of the DNA. The 5′ end of the input DNA molecules remains unchanged. Paired-end sequencing was performed on an Illumina MiSeq. The 5′ end of each read R1 represents the start of a DNA molecule, and thus a CARD1 cut site. Using a custom python script, the location of 7,020,067 ΦX174 reads (mapping to Genbank reference NC_001422) and 7,670,616 M13 reads (mapping to Genbank reference X02513) was determined. To account for reads mapping at the circular junctions, 65 nucleotides of the first 5′ end of the maps were copied and added at the 3′ end of the maps. The DNA sequence 20 nucleotides upstream and downstream of the cut sites was extracted using a custom Python script, and the CARD1 cleavage motifs for ΦX174 and the M13 were determined separately using Weblogo3 (38), with basal nucleotide compositions determined by the compositions in each map (ΦX174 with A:24.0, C:21.4, G:23.3, T:31.3, and M13 with A:24.4, C:21.1, G:21.1, T:33.4). For the fragment size analysis, 8 nucleotides were removed from all the reads from the 3′ end pair mate by the “Trim Ends” option in the Geneious Bioinformatics Software platform (39). Using the STAR aligner (version 2.7.3) (40), 7,505,136 reads were successfully mapped to ΦX174, and 8,179,356 reads were successfully mapped to M13, using default arguments with the addition of --alignIntronMax 1 --alignMatesGapMax 6000 --peOverlapNbasesMin 5 --alignEndsProtrude 10 ConcordantPair.

[1] = tested on: RNA oligos with either 15 adenines, uracils, or cytosines; conditions: 5′ fluorophore and 3′ quencher; 15 A, U or C
Experimental: For determining the nucleotide cleavage preference of CARD1, the reaction was performed as above, with 1 uM of each RNA oligo (IDT). […] Fluorescent measurements were taken in a TECAN plate reader, using values from when the reaction was complete. 0.5 ul of RNaseI (Thermo Fisher Scientific), which cuts next to all RNA nucleotides, was used as a positive control.

[2] = tested on: Staphylococcus aureus RN4220; assay: Growth curves, in vivo CARD1 toxicity induction; type: cell-based; conditions: pTarget + pCRISPR variant, no antibiotic selection of pTarget
Experimental: For in vivo CARD1 toxicity induction, triplicate RN4220 overnight cultures harbouring pTarget and a pCRISPR are diluted 1:100, outgrown for about an hour, and normalized for OD. Cells are then seeded in a 96 well plate. To induce targeting, 6.25-12.5 ng/ml of anhydrotetracycline (aTc) is added to the appropriate wells. Absorbance at 600 nm is then measured every 10 minutes by a microplate reader (TECAN Infinite 200 PRO). To analyze targeting escapers, cells from the end of the experiment (either cells from wells without aTc, i.e. naïve cells, or cells from wells that recovered later in the time course due to CARD1 toxicity) are re-streaked on BHI agar plates, and individual colonies were launched in liquid culture, diluted the next day, and used for a new time course experiment. From these overnight cultures, plasmid DNA was isolated (QIAgen Spin Miniprep Kit), digested by BamHI-HF (single-cutter for both pTarget and pCRISPR) (New England Biolabs), and visualized by gel electrophoresis. The deletion of important features in pTarget (making it unable to be targeted by pCRISPR) or pCRISPR was confirmed by Sanger sequencing.

B1: CARD1: cA4-activated ssDNA and ssRNA nuclease of Treponema succinifaciens, SEQ ID NO:1; N-terminal CARF domain, C-terminal REase domain (protein, listed as Treponema succinifaciens)
chain: MKETILVNLVSEQTIPNVQFIKWYFNKKQTPMKILLVSTKEMEQKEKSLFIKNALHFSDSFVEWETIHTDGNDISKTENILTDYFRDNEYKNIIVNITGGTKIMSLAAFDFFNNKPNTEIFYQPIGKELQELYPNKQKYDMFEVLSLKEYLDAHGISYKYDNECVKDWNYNKTVYDLCVADNRELIKGMIALQNNSYFNNVYKRKDFLDFTQIEEEKFIAINHPAATKENMIKILQIFGFDVSRIEHKHIRYITGGWFEEYVYQKICNEYHNVDEKNVALNVTIQKGNDKNELDVIYLDKDNKLHVIECKSFVDGNEGNRVLNDALYKLQAIIKSKFGLYVKQHLYTKSIIEKETPLNRAKEFGIDIKDGTQL
M13 ssDNA; M13, 5′ end mapping
  cuts that occur at the 25 most frequent positions: 31.1%
M13 ssDNA; M13, 2 hours timepoint
  average fragment length of degradation products: 150.1 nucleotides
ΦX174 ssDNA; stated for both ΦX174 and M13 ssDNA degradation products
  average product size: ~150 nucleotides
ΦX174 ssDNA; stated for both ΦX174 and M13 ssDNA degradation products, WebLogo
  cleavage site preference: preferentially upstream of T(A/G) sites
ΦX174 ssDNA; ΦX174, 5′ end mapping, 2 hours timepoint
  cuts that occur at the 25 most frequent positions: 26.7%
ΦX174 ssDNA; ΦX174, 2 hours timepoint
  average fragment length of degradation products: 163.6 nucleotides
[1]
  degradation of homopolymer RNA oligos (sequence preference): able to efficiently degrade RNAs consisting of all three bases
[2]
  growth of cultures (OD600) after addition of aTc: severe growth defect
